From the supplement of paper PMC10567573

B1: TCEB3B (parent)
chain: STTALGDKQRKANESKGTRESWDS
B2: PTPRD (parent)
chain: ITWFKDFLPVDTSNNNGRIKQLRS

Variants of: B1
Assay: protein stability index of a GFP-peptide fusion (GPS, HEK-293T) (PSI 1-6); higher = more stable
Conditions: c terminus: a fixed tail appended
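Further: lentivirally expressed fusions sorted by FACS into six bins by GFP to DsRed ratio, PSI derived from sequencing read proportions per bin multiplied by bin number.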

Protein stability index, by site and new letter:
T2: G 3.49; D 4.01; Y 3.33; I 3.29; R 5.3; E 4.05; K 4.11; L 3.67; C 3.8; N 4.25; A 4.32; H 3.77; F 3.75; P 3.94; W 3.16; Q 3.33; S 4.09; V 3.67; M 3.94
T3: C 3.22; D 3.98; A 3.89
S1: E 3.85; W 2.74; M 4.22; L 3.67; C 3.47; V 4.06; Q 3.67; H 3.64; K 3.12; D 4.16; P 3.77; R 3.88; T 3.61; I 3.58; A 3.94; G 3.9; Y 3.6; F 2.81; N 4.3

Variants of: B2
Assay: as above
Conditions: c terminus: a fixed tail appended

Protein stability index: each site, then its substitutions
R23: C 1.43; A 2.89; I 1.88; K 2.55; V 1.91; G 1.74; F 1.88; L 1.81; P 1.8; Y 1.63; S 1.83; Q 2.09; M 1.88; N 1.83; H 1.74; D 2.39; W 1.11; T 2.04; E 2.77
R18: E 1.87; W 1.62; L 1.45; T 1.93; G 2.73; V 2.33; A 1.8; F 2.04; K 1.68; S 1.95; Q 2.24; P 2.08; C 2.83; I 1.74; H 2.77; Y 2.1; N 1.97; M 1.63; D 1.83
T12: N 1.51; H 1.48; Y 1.55; W 1.84; E 2.06; F 1.65; V 2.42; M 2.32; K 2.01; R 1.9; I 2.01; S 1.94; L 1.94; A 1.98; D 1.99; P 2.03; Q 2.25; G 1.83; C 1.55
S13: V 2.38; W 1.65; R 1.88; K 1.77; I 1.41; F 1.52; C 1.54; G 1.77; D 2.22; M 2.17; H 2.05; Q 1.85; N 1.68; E 1.7; T 1.95; Y 2.05; L 1.88; A 1.62; P 2.34
P9: N 2.28; V 2.04; W 1.75; Y 1.66; R 1.43; S 2.13; Q 2.12; T 1.42
K20: N 2.08; W 1.95; H 1.63; E 1.74; M 1.55; C 1.43; L 2; V 1.68; P 1.61; Y 2.19; I 1.31; T 1.95; S 2.72; A 1.66; F 1.98; R 1.53; Q 1.94; G 1.58; D 2.05
N15: L 2.37; T 3.44; G 1.72; E 1.69; V 1.74; Q 1.76; P 1.82; C 2.26; M 1.8; H 1.48; A 1.61; D 1.74; W 2.17; R 1.71; I 1.58; Y 1.87; S 1.67; K 2.54; F 1.6
N14: E 2.05; V 1.76; Y 1.51; H 1.37; F 1.5; A 2.03; D 1.66; Q 2.02; K 2.04; G 1.92; C 1.52; L 1.96; P 2.37; T 1.76; M 1.79; W 2.16; S 2.94; R 1.98; I 1.85
L22: W 1.84; P 1.63; G 1.84; F 2.01; N 2.01; M 1.88; A 1.69; H 2.28; Q 1.62; E 2.07; V 1.62; S 2.04; Y 2.73; K 1.77; R 1.83; T 2.12; C 1.61; D 2; I 2.24
V10: K 2.07; R 1.82; C 2.05; T 1.76; A 2.03; G 2.28; F 2.65; Y 1.89; D 2.39; E 2.23; I 2.49; P 2.26; M 1.86; S 2.15; L 1.95; H 2.07; N 2.34; W 2.62; Q 2.17
I19: Y 2.13; F 2.25; K 2.33; A 1.72; M 2.04; C 1.69; L 2.07; S 1.54; W 1.46; Q 2.57; R 1.84; D 2.08; T 2.23; G 2.24; H 1.53; V 1.73; N 1.95; E 1.95; P 1.69
Q21: P 2.01; H 1.56; A 1.57; G 2.28; V 1.67; D 2.17; L 1.73; N 1.99; R 1.55; I 2.23; M 1.45; F 1.75; C 1.52; T 1.69; K 2.58; W 2.24; Y 1.93; S 2.38; E 2.2
G17: T 2.25; I 1.53; Q 2.15; L 1.73; H 1.37; V 1.31; M 1.34; E 2.62; P 1.73; R 1.5; N 1.86; D 2.09; S 2.33; W 2.63; C 1.88; Y 1.78; K 2.86; A 1.58; F 2.33
S24: T 1.51; G 2.34; R 2.18; Q 1.78; L 1.41; N 1.88; E 1.77; Y 1.94; H 1.74; D 1.9; C 2.32; I 1.97; W 2.63; M 1.54; P 1.34; A 1.96; K 2.15; F 1.69; V 1.52
N16: D 1.88; R 1.65; G 1.7; T 2.38; K 1.98; F 1.82; A 1.78; V 2.62; M 1.43; Y 1.71; S 1.98; W 2.17; P 2.32; Q 2.26; I 2.32; E 2.02; H 1.58; L 1.73; C 2.09
D11: P 2.06; W 2.33; G 1.99; K 1.71; C 2.23; M 2.16; A 1.9; I 2.44; T 1.61; Q 1.84; S 2.06; R 1.35; E 1.99; N 2.01; F 1.9; Y 1.67; V 1.86; H 1.73; L 1.62
